In patent publication US20250043302A1, “MUTATED HYDROXYPHENYLPYRUVATE DIOXYGENASE POLYPEPTIDE, AND CODING GENE AND USE THEREOF” (BEIJING DABEINONG BIOTECHNOLOGY CO., LTD., priority 2021, published 2025):

Assays:
Type in all cases: in vivo
[1] = test system: Arabidopsis thaliana T1 plants; assay: Mesotrione tolerance of transgenic Arabidopsis thaliana T1 plants (spray, bleached leaf area grade, damage score); parameters: Scores: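 damage score 0-100 computed as Σ(N×S)/(T×M)×100 over grades 0-3 with higher meaning more damage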; conditions: Arabidopsis thaliana T1 plants; for Grade 0 (classification and statistics of the grade of pesticide damage; number of plants) / Grade 1 (classification and statistics of the grade of pesticide damage; number of plants) / Grade 2 (classification and statistics of the grade of pesticide damage; number of plants) / Grade 3 (classification and statistics of the grade of pesticide damage; number of plants): 16 plants
Outline: (§1)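 Read-out: per-plant damage grade 0–3 from proportion of bleached leaf area at 7 DAT (1 <50%, 2 >50%, 3 100%). Plants were T1 transformants, glufosinate-selected, plus wild-type CK, sprayed 18 days post-sowing. Rates: topramezone 25–200, isoxaflutole 35–280, mesotrione 52.5–420 g ai/ha.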

[2] = test system: Arabidopsis thaliana T1 plants; assay: Topramezone tolerance of transgenic Arabidopsis thaliana T1 plants (spray, bleached leaf area grade, damage score); conditions: 7 DAT, Table 4; for Classification and statistics of the grade of pesticide damage: Grade 0 / Classification and statistics of the grade of pesticide damage: Grade 1 / Classification and statistics of the grade of pesticide damage: Grade 2 / Classification and statistics of the grade of pesticide damage: Grade 3: number of plants; for Scores: pesticide damage score 0-100
Outline: as §1

[3] = test system: Arabidopsis thaliana T1 plants; assay: Isoxaflutole tolerance of transgenic Arabidopsis thaliana T1 plants (spray, bleached leaf area grade, damage score); parameters: Scores (pesticide damage): scale not given here; conditions: spray, Arabidopsis thaliana T1 plants; for Classification and statistics of the grade of pesticide damage: Grade 0 (number of plants) / Classification and statistics of the grade of pesticide damage: Grade 1 (number of plants) / Classification and statistics of the grade of pesticide damage: Grade 2 (number of plants) / Classification and statistics of the grade of pesticide damage: Grade 3 (number of plants): 16 plants
Outline: as §1

[4] = isoxaflutole 35 g ai/ha (0.5x field concentration)
[5] = isoxaflutole 70 g ai/ha (1x field concentration)

B1: AtHPPDm-F383W-02: nucleotide sequence encoding Arabidopsis thaliana HPPD with F383W; vector DBN11732 (nucleic acid)
DNA: ATGGGACATCAGAATGCTGCTGTATCAGAAAATCAAAATCATGATGATGGAGCCGCCTCCTCACCAGGGTTTAAGTTGGTTGGGTTCTCCAAGTTTGTACGGAAGAACCCAAAATCCGACAAGTTCAAGGTTAAACGCTTCCACCACATTGAATTCTGGTGCGGCGACGCCACCAATGTTGCTCGGCGTTTTTCATGGGGTTTAGGCATGAGATTCTCAGCAAAGAGTGACCTGAGCACCGGCAACATGGTTCATGCTAGCTATCTCTTAACATCTGGAGATTTGAGGTTTCTTTTCACGGCGCCGTACTCACCATCACTCTCCGCCGGCGAGATCAAACCCACCACGACTGCAAGCATACCTTCATTTGATCATGGTAGTTGCAGATCCTTCTTCTCGTCGCACGGCCTAGGGGTGCGCGCGGTCGCCATCGAAGTTGAAGATGCAGAATCAGCGTTTAGTATCAGCGTGGCAAATGGAGCTATTCCTTCCTCCCCTCCAATTGTCCTCAATGAGGCTGTAACTATTGCCGAGGTGAAGTTGTATGGAGATGTTGTGCTGAGATATGTTTCTTACAAGGCAGAGGACACTGAGAAATCTGAATTTTTGCCTGGTTTTGAAAGGGTCGAGGATGCTTCAAGTTTTCCTCTTGATTACGGCATACGACGGTTGGATCACGCGGTTGGAAATGTACCAGAACTTGGGCCGGCGCTCACTTATGTGGCTGGTTTCACTGGATTCCATCAATTTGCTGAGTTCACAGCTGATGATGTTGGGACTGCTGAAAGTGGGTTGAACTCTGCAGTCCTCGCCTCTAATGATGAAATGGTGCTCCTCCCGATCAACGAGCCTGTGCATGGCACCAAAAGGAAATCACAAATACAGACATATCTTGAGCACAATGAAGGTGCAGGGCTTCAACATCTTGCACTGATGTCTGAAGACATTTTCCGTACGCTGAGAGAGATGAGGAAGAGAAGTAGTATTGGTGGATTTGACTTCATGCCTTCTCCCCCACCAACTTACTACCAGAACTTGAAGAAGAGGGTTGGTGATGTGCTATCTGATGACCAGATCAAGGAGTGTGAAGAATTGGGCATTCTTGTTGATCGGGACGACCAAGGAACATTACTGCAGATATTTACAAAACCACTTGGTGACCGCCCCACTATTTGGATTGAGATCATACAAAGAGTCGGCTGCATGATGAAGGATGAGGAAGGAAAAGCATATCAATCTGGTGGTTGTGGCGGCTTTGGGAAAGGAAACTTCTCTGAGCTGTTCAAATCCATCGAGGAGTATGAGAAGACCTTGGAGGCCAAGCAGCTCGTGGGTTGA
modifications: AtHPPDm-F383W-02 Nucleotide Sequence
notes: vector DBN11732
[1]; mesotrione 52.5 g ai/ha
  Resistance evaluation: Non-resistant
  Scores: 100
  Grade 0 (classification and statistics of the grade of pesticide damage; number of plants): 0
  Grade 1 (classification and statistics of the grade of pesticide damage; number of plants): 0
  Grade 2 (classification and statistics of the grade of pesticide damage; number of plants): 0
  Grade 3 (classification and statistics of the grade of pesticide damage; number of plants): 16
[1]; mesotrione 105 g ai/ha
  Resistance evaluation: Non-resistant
  Scores: 100
  Grade 0 (classification and statistics of the grade of pesticide damage; number of plants): 0
  Grade 1 (classification and statistics of the grade of pesticide damage; number of plants): 0
  Grade 2 (classification and statistics of the grade of pesticide damage; number of plants): 0
  Grade 3 (classification and statistics of the grade of pesticide damage; number of plants): 16
[2]; topramezone 25 g ai/ha (1×)
  Classification and statistics of the grade of pesticide damage: Grade 0: 0
  Classification and statistics of the grade of pesticide damage: Grade 1: 2
  Classification and statistics of the grade of pesticide damage: Grade 2: 5
  Classification and statistics of the grade of pesticide damage: Grade 3: 9
  Scores: 81
  Resistance evaluation: non-resistant (non-resistant plants (scores 68-100))
[2]; topramezone 100 g ai/ha (4×)
  Classification and statistics of the grade of pesticide damage: Grade 0: 0
  Classification and statistics of the grade of pesticide damage: Grade 1: 0
  Classification and statistics of the grade of pesticide damage: Grade 2: 2
  Classification and statistics of the grade of pesticide damage: Grade 3: 14
  Scores: 96
  Resistance evaluation: non-resistant (non-resistant plants (scores 68-100))
[3]; [4]
  Resistance evaluation: Non-resistant
  Scores (pesticide damage): 77
  Classification and statistics of the grade of pesticide damage: Grade 0 (number of plants): 0
  Classification and statistics of the grade of pesticide damage: Grade 1 (number of plants): 2
  Classification and statistics of the grade of pesticide damage: Grade 2 (number of plants): 7
  Classification and statistics of the grade of pesticide damage: Grade 3 (number of plants): 7
[3]; [5]
  Resistance evaluation: Non-resistant
  Scores (pesticide damage): 100
  Classification and statistics of the grade of pesticide damage: Grade 0 (number of plants): 0
  Classification and statistics of the grade of pesticide damage: Grade 1 (number of plants): 0
  Classification and statistics of the grade of pesticide damage: Grade 2 (number of plants): 0
  Classification and statistics of the grade of pesticide damage: Grade 3 (number of plants): 16
